Data taken from the supplement of paper PMC10567573.

B1: NET1 (parent)
chain: IKRTIRVLDVNNQSFREQEEPSNK
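Also: lentivirally expressed fusions sorted by FACS into six bins by GFP to DsRed ratio, PSI derived from sequencing read proportions per bin multiplied by bin number.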

Variants of: B1
Assay: protein stability index of a GFP-peptide fusion (GPS, HEK-293T) (PSI 1-6); higher = more stable
Settings: c terminus: a fixed tail appended
For IKRTITVLDVNNQSFREQEEPSNK [R6T], the protein stability index was 3.92.
With IKRTIQVLDVNNQSFREQEEPSNK [R6Q] the protein stability index was 4.16.
Variant IKRTIWVLDVNNQSFREQEEPSNK [R6W] has a protein stability index of 2.42.
IKRTIDVLDVNNQSFREQEEPSNK [R6D] gave a protein stability index of 4.77.
IKRTINVLDVNNQSFREQEEPSNK [R6N] showed a protein stability index of 3.62.
Variant IKRTISVLDVNNQSFREQEEPSNK [R6S] has a protein stability index of 4.23.
Variant IKRTIVVLDVNNQSFREQEEPSNK [R6V] has a protein stability index of 2.77.
IKRTIFVLDVNNQSFREQEEPSNK [R6F] gave a protein stability index of 2.68.
With IKRTIKVLDVNNQSFREQEEPSNK [R6K] the protein stability index was 4.04.
Work on IKRTIEVLDVNNQSFREQEEPSNK [R6E] yielded a protein stability index of 4.65.
In the case of IKRTIYVLDVNNQSFREQEEPSNK [R6Y], the protein stability index is reported as 2.35.
With IKRTIMVLDVNNQSFREQEEPSNK [R6M] the protein stability index was 3.32.
IKRTIPVLDVNNQSFREQEEPSNK [R6P] showed a protein stability index of 4.87.
In the case of IKRTIGVLDVNNQSFREQEEPSNK [R6G], the protein stability index is reported as 4.51.
IKRTIIVLDVNNQSFREQEEPSNK [R6I] gave a protein stability index of 1.99.
Variant IKRTILVLDVNNQSFREQEEPSNK [R6L] has a protein stability index of 2.63.
For IKRTIRVLDVNNCSFREQEEPSNK [Q13C], the protein stability index was 3.01.
With IKRTIRVLDVNNMSFREQEEPSNK [Q13M] the protein stability index was 3.8.
IKRTIRVLDVNNHSFREQEEPSNK [Q13H] gave a protein stability index of 3.28.
For IKRTIRVLDVNNTSFREQEEPSNK [Q13T], the protein stability index was 3.37.
Work on IKRTIRVLDVNNRSFREQEEPSNK [Q13R] yielded a protein stability index of 3.27.
Variant IKRTIRVLDVNNISFREQEEPSNK [Q13I] has a protein stability index of 2.99.
Variant IKRTIRVLDVNNSSFREQEEPSNK [Q13S] has a protein stability index of 4.19.
With IKRTIRVLDVNNGSFREQEEPSNK [Q13G] the protein stability index was 3.8.
For IKRTIRVLDVNNESFREQEEPSNK [Q13E], the protein stability index was 4.26.
Variant IKRTIRVLDVNNWSFREQEEPSNK [Q13W] has a protein stability index of 2.51.
IKRTIRVLDVNNKSFREQEEPSNK [Q13K] gave a protein stability index of 3.7.
For IKRTIRVLDVNNVSFREQEEPSNK [Q13V], the protein stability index was 3.67.
In the case of IKRTIRVLDVNNDSFREQEEPSNK [Q13D], the protein stability index is reported as 3.56.
For IKRTIRVLDVNNASFREQEEPSNK [Q13A], the protein stability index was 4.18.
Variant IKRTIRVLDVNNPSFREQEEPSNK [Q13P] has a protein stability index of 3.35.
Work on IKRTIRVLDVNNLSFREQEEPSNK [Q13L] yielded a protein stability index of 2.33.
IKRTIRVLDVNNYSFREQEEPSNK [Q13Y] gave a protein stability index of 2.04.
IKRTIRVLDVNNFSFREQEEPSNK [Q13F] showed a protein stability index of 2.72.
IKRTIRVLDVNNNSFREQEEPSNK [Q13N] showed a protein stability index of 3.69.
Work on IKRTTRVLDVNNQSFREQEEPSNK [I5T] yielded a protein stability index of 5.1.
Variant IKRTWRVLDVNNQSFREQEEPSNK [I5W] has a protein stability index of 3.31.
IKRTYRVLDVNNQSFREQEEPSNK [I5Y] gave a protein stability index of 3.95.
IKRTIRVLRVNNQSFREQEEPSNK [D9R] gave a protein stability index of 3.54.
For IKRTIRVLQVNNQSFREQEEPSNK [D9Q], the protein stability index was 3.26.
For IKRTIRVLCVNNQSFREQEEPSNK [D9C], the protein stability index was 2.94.
With IKRTIRVLIVNNQSFREQEEPSNK [D9I] the protein stability index was 1.58.
Variant IKRTIRVLMVNNQSFREQEEPSNK [D9M] has a protein stability index of 1.91.
Variant IKRTIRVLPVNNQSFREQEEPSNK [D9P] has a protein stability index of 4.36.
Work on IKRTIRVLNVNNQSFREQEEPSNK [D9N] yielded a protein stability index of 4.11.
IKRTIRVLKVNNQSFREQEEPSNK [D9K] showed a protein stability index of 4.44.
In the case of IKRTIRVLHVNNQSFREQEEPSNK [D9H], the protein stability index is reported as 4.23.
IKRTIRVLEVNNQSFREQEEPSNK [D9E] gave a protein stability index of 3.91.
With IKRTIRVLTVNNQSFREQEEPSNK [D9T] the protein stability index was 2.9.
IKRTIRVLWVNNQSFREQEEPSNK [D9W] gave a protein stability index of 2.89.
In the case of IKRTIRVLLVNNQSFREQEEPSNK [D9L], the protein stability index is reported as 1.77.
In the case of IKRTIRVLFVNNQSFREQEEPSNK [D9F], the protein stability index is reported as 2.24.
For IKRTIRVLYVNNQSFREQEEPSNK [D9Y], the protein stability index was 2.41.
IKRTIRVLSVNNQSFREQEEPSNK [D9S] showed a protein stability index of 3.5.
Variant IKRTIRVLAVNNQSFREQEEPSNK [D9A] has a protein stability index of 3.31.
With IKRTIRVLGVNNQSFREQEEPSNK [D9G] the protein stability index was 3.7.
With IKRTIRVLDVGNQSFREQEEPSNK [N11G] the protein stability index was 2.99.
With IKRTIRVLDVMNQSFREQEEPSNK [N11M] the protein stability index was 2.83.
With IKRTIRVLDVSNQSFREQEEPSNK [N11S] the protein stability index was 4.22.
With IKRTIRVLDVVNQSFREQEEPSNK [N11V] the protein stability index was 3.56.
In the case of IKRTIRVLDVINQSFREQEEPSNK [N11I], the protein stability index is reported as 1.85.
Work on IKRTIRVLDVANQSFREQEEPSNK [N11A] yielded a protein stability index of 4.48.
In the case of IKRTIRVLDVKNQSFREQEEPSNK [N11K], the protein stability index is reported as 4.44.
IKRTIRVLDVTNQSFREQEEPSNK [N11T] gave a protein stability index of 3.41.
For IKRTIRVLDVENQSFREQEEPSNK [N11E], the protein stability index was 4.51.
With IKRTIRVLDVRNQSFREQEEPSNK [N11R] the protein stability index was 4.41.
With IKRTIRVLDVDNQSFREQEEPSNK [N11D] the protein stability index was 4.47.
IKRTIRVLDVFNQSFREQEEPSNK [N11F] showed a protein stability index of 2.61.
IKRTIRVLDVWNQSFREQEEPSNK [N11W] showed a protein stability index of 2.65.
Work on IKRTIRVLDVPNQSFREQEEPSNK [N11P] yielded a protein stability index of 4.16.
IKRTIRVLDVQNQSFREQEEPSNK [N11Q] gave a protein stability index of 4.34.
Variant IKRTIRVLDVHNQSFREQEEPSNK [N11H] has a protein stability index of 3.62.
In the case of IKRTIRVLDVLNQSFREQEEPSNK [N11L], the protein stability index is reported as 2.26.
Variant IKRTIRVLDVYNQSFREQEEPSNK [N11Y] has a protein stability index of 4.06.
Work on IKRTIRVLDVCNQSFREQEEPSNK [N11C] yielded a protein stability index of 3.09.
For IKRTIRVLDVNNQAFREQEEPSNK [S14A], the protein stability index was 3.02.
In the case of IKRTIRVLDVNNQQFREQEEPSNK [S14Q], the protein stability index is reported as 3.91.
With IKRTIRVLDVNNQFFREQEEPSNK [S14F] the protein stability index was 2.56.
For IKRTIRVLDVNNQWFREQEEPSNK [S14W], the protein stability index was 3.01.
For IKRTIRVLDVNNQNFREQEEPSNK [S14N], the protein stability index was 3.47.
IKRTIRVLDVNNQKFREQEEPSNK [S14K] gave a protein stability index of 3.24.
IKRTIRVLDVNNQVFREQEEPSNK [S14V] gave a protein stability index of 3.47.
With IKRTIRVLDVNNQGFREQEEPSNK [S14G] the protein stability index was 4.17.
IKRTIRVLDVNNQTFREQEEPSNK [S14T] showed a protein stability index of 3.52.
With IKRTIRVLDVNNQRFREQEEPSNK [S14R] the protein stability index was 3.78.
With IKRTIRVLDVNNQDFREQEEPSNK [S14D] the protein stability index was 3.68.
IKRTIRVLDVNNQIFREQEEPSNK [S14I] gave a protein stability index of 3.64.
For IKRTIRVLDVNNQHFREQEEPSNK [S14H], the protein stability index was 3.09.
Variant IKRTIRVLDVNNQPFREQEEPSNK [S14P] has a protein stability index of 2.9.
In the case of IKRTIRVLDVNNQYFREQEEPSNK [S14Y], the protein stability index is reported as 2.6.
IKRTIRVLDVNNQEFREQEEPSNK [S14E] showed a protein stability index of 3.79.
For IKRTIRVLDVNNQMFREQEEPSNK [S14M], the protein stability index was 3.21.
IKRTIRVLDVNNQCFREQEEPSNK [S14C] gave a protein stability index of 3.27.
In the case of IKRTIRVLDVNNQLFREQEEPSNK [S14L], the protein stability index is reported as 2.62.
